These are literature values, as cited in paper PMC7570734.

The target of series [1] is alpha-factor (Saccharomyces cerevisiae) (UniProt P01149).
Series [2] has the same target. This is another data set of the same source.

Read-outs that look alike come from different tables or passages of the source. Where only a bound is given, the exact number is not on record here.

What is called Kd is a measure of binding affinity in units of concentration. Ste2p (from UniProt D6VTK4): the equilibrium dissociation constant (Kd) in series [1] was > 150 nM; in series [2], 17 nM.
